Measured values from paper PMC11420955.
Each block holds one molecule with its values, some of them ahead of it.

Legend:
[1] = molecular target: McjC K337E (UniProt Q9X2V9)
[2] = molecular target: McjC S440Y (UniProt Q9X2V9)
[3] = molecular target: T1, McjB (UniProt Q9X2V8)
T1 sequence: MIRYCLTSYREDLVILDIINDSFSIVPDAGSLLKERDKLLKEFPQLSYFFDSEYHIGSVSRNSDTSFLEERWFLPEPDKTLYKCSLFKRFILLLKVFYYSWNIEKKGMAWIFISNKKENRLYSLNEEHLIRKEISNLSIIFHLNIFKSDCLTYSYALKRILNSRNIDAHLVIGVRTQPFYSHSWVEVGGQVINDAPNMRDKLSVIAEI

[4] = molecular target: McjB M108T (UniProt Q9X2V8)
[5] = molecular target: T2, McjC (UniProt Q9X2V9)
T2 sequence: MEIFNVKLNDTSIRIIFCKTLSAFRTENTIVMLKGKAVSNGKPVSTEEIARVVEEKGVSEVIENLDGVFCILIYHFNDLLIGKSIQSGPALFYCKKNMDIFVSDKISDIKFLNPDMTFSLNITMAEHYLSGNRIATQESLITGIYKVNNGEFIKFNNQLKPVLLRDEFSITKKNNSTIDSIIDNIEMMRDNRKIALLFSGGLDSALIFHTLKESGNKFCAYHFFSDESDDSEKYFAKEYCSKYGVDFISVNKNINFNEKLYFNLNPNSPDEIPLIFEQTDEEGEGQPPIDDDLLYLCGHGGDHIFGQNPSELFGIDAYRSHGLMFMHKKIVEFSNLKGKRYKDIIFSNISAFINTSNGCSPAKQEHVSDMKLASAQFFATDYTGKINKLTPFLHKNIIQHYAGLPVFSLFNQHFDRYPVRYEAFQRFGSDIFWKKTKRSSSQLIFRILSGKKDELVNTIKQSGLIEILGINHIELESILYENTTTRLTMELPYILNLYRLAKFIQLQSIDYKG

Molecule: McjA T-2M (peptide)
MccJ25 production yield relative to WT (HPLC peak area of E. coli culture extract) [3]: 1% | MccJ25 production yield relative to WT (HPLC peak area of E. coli culture extract; synthetic rescue pair TM) [4]: 5.4%

B1: McjB circular permutant CP60/61 (enzyme)
chain: RNSDTSFLEERWFLPEPDKTLYKCSLFKRFILLLKVFYYSWNIEKKGMAWIFISNKKENRLYSLNEEHLIRKEISNLSIIFHLNIFKSDCLTYSYALKRILNSRNIDAHLVIGVRTQPFYSHSWVEVGGQVINDAPNMRDKLSVIAEIGGSSGGMIRYCLTSYREDLVILDIINDSFSIVPDAGSLLKERDKLLKEFPQLSYFFDSEYHIGSVS
MccJ25 production yield relative to WT (HPLC peak area of E. coli culture extract) [5]: 0.4%

B2: McjB circular permutant CP80/81 (enzyme)
chain: LYKCSLFKRFILLLKVFYYSWNIEKKGMAWIFISNKKENRLYSLNEEHLIRKEISNLSIIFHLNIFKSDCLTYSYALKRILNSRNIDAHLVIGVRTQPFYSHSWVEVGGQVINDAPNMRDKLSVIAEIGGSSGGMIRYCLTSYREDLVILDIINDSFSIVPDAGSLLKERDKLLKEFPQLSYFFDSEYHIGSVSRNSDTSFLEERWFLPEPDKT
MccJ25 production yield relative to WT (HPLC peak area of E. coli culture extract) [5]: 4.4%

B3: McjC with a C-terminal MBP fusion (enzyme)
chain: MEIFNVKLNDTSIRIIFCKTLSAFRTENTIVMLKGKAVSNGKPVSTEEIARVVEEKGVSEVIENLDGVFCILIYHFNDLLIGKSIQSGPALFYCKKNMDIFVSDKISDIKFLNPDMTFSLNITMAEHYLSGNRIATQESLITGIYKVNNGEFIKFNNQLKPVLLRDEFSITKKNNSTIDSIIDNIEMMRDNRKIALLFSGGLDSALIFHTLKESGNKFCAYHFFSDESDDSEKYFAKEYCSKYGVDFISVNKNINFNEKLYFNLNPNSPDEIPLIFEQTDEEGEGQPPIDDDLLYLCGHGGDHIFGQNPSELFGIDAYRSHGLMFMHKKIVEFSNLKGKRYKDIIFSNISAFINTSNGCSPAKQEHVSDMKLASAQFFATDYTGKINKLTPFLHKNIIQHYAGLPVFSLFNQHFDRYPVRYEAFQRFGSDIFWKKTKRSSSQLIFRILSGKKDELVNTIKQSGLIEILGINHIELESILYENTTTRLTMELPYILNLYRLAKFIQLQSIDYKG
MccJ25 production yield relative to WT (HPLC peak area of E. coli culture extract; McjC-MBP in an otherwise native gene cluster) [3]: 86%

B4: McjB with a C-terminal MBP fusion (enzyme)
chain: MIRYCLTSYREDLVILDIINDSFSIVPDAGSLLKERDKLLKEFPQLSYFFDSEYHIGSVSRNSDTSFLEERWFLPEPDKTLYKCSLFKRFILLLKVFYYSWNIEKKGMAWIFISNKKENRLYSLNEEHLIRKEISNLSIIFHLNIFKSDCLTYSYALKRILNSRNIDAHLVIGVRTQPFYSHSWVEVGGQVINDAPNMRDKLSVIAEI
MccJ25 production yield relative to WT (HPLC peak area of E. coli culture extract; McjB-MBP in an otherwise native gene cluster) [5]: 61%

B5: McjB F67R (enzyme)
chain: MIRYCLTSYREDLVILDIINDSFSIVPDAGSLLKERDKLLKEFPQLSYFFDSEYHIGSVSRNSDTSRLEERWFLPEPDKTLYKCSLFKRFILLLKVFYYSWNIEKKGMAWIFISNKKENRLYSLNEEHLIRKEISNLSIIFHLNIFKSDCLTYSYALKRILNSRNIDAHLVIGVRTQPFYSHSWVEVGGQVINDAPNMRDKLSVIAEI
MccJ25 production yield relative to WT (HPLC peak area of E. coli culture extract) [5]: 0.6%

Second part, the molecule after the results:

MccJ25 production yield relative to WT (HPLC peak area of E. coli culture extract) [1]: 8.1% | MccJ25 production yield relative to WT (HPLC peak area of E. coli culture extract) [2]: 2.4%
Molecule: Microcin J25 precursor peptide McjA

MccJ25 production yield relative to WT (HPLC peak area of E. coli culture extract) [5]: 41%
Molecule: Split McjB S80/81 (B1 1-80 and B2 81-208 as separate proteins) (from UniProt Q9X2V8 1-80; Q9X2V8 81-208) (complex)
